Measured values as given in patent publication US20220073618A1 (NANJING GENSCRIPT BIOTECH, published 2022).

Assays:
[1] = biological target: T1, human PD-L1 on cell surface (human, UniProt Q9NZQ7 19-290); assay: cell-based or functional assay
[2] = biological target: T1, human PD-L1 on cell surface; assay: flow cytometry on CHO cells expressing human PD-L1, fitted curve
Procedure: (§1) CHO cells expressing human or monkey PD-L1 and parent cells as a negative control were washed 3 times with PBS. 2.5×10⁵ detection cells and 100 μl of 3-fold serial dilutions of purified antibody with an initial concentration of 300 nM were added to a 96-well plate and incubated at 4° C. for 1 hr. […] Finally, the cells were washed 3 times with PBS, and the signal was read on FACS BD Calibur.

[3] = biological target: T2, monkey PD-L1 on cell surface (monkey); assay: flow cytometry on CHO cells expressing monkey PD-L1, fitted curve
T2 construct: whole, on cells; also called monkey PD-L1 cell line; CHO cells overexpressing monkey PD-L1
Procedure: as §1
Moreover, CHO cells overexpressing monkey PD-L1 were used to test the cross-recognition binding to monkey PD-L1 by the antibodies.

human PD-L1 protein [4] = biological target: T3, human PD-L1 protein (human, UniProt Q9NZQ7 19-238, limits assumed); assay: ELISA on human PD-L1 protein; antibody treated for 20 min at 70 C
Procedure: (§2) The antibody samples were treated for 20 min at various temperature gradients respectively, and then centrifuged to remove the pellet. Then the amount of remaining antibody was evaluated by ELISA. (The temperature gradient includes: room temperature, 30° C., 40° C., 50° C., 60° C., 70° C., […]) (FIG. 4)

human PD-L1 protein [5] = biological target: T3, human PD-L1 protein; assay: ELISA on human PD-L1 protein; antibody treated for 20 min (all overlapping curves)
Procedure: as §2

[6] = biological target: T4, PD-L1-HIS recombinant protein (human, UniProt Q9NZQ7 19-238, limits assumed); assay: SPR (Biacore 8K), antibody captured on chip, PD-L1-HIS analyte 2.5-80 nM, 1:1 binding model
T4 construct: not shown: His tag
Procedure: The chip surface was equilibrated with HBS-EP buffer at a flow rate of 10 μl/min for 5 min, and then a 1:1 mixture of “NHS+EDC” was injected at a flow rate of 10 μl/min for 420 sec to activate the chip. The capture antibody (goat anti-murine IgG) diluted in 10 mM sodium acetate buffer was injected for about 420 sec at a flow rate of 10 μl/min for coupling, and finally ethanolamine was injected for 420 sec at a flow rate of 10 μl/min to block the surface.
Three pre-cycles were performed with the HBS-EP buffer as a sample to balance the chip to stabilize the baseline. The antibody diluted in HBS-EP buffer was injected for 30 sec at a flow rate of 10 μl/min (where the antibody-antigen binding signal was controlled to about 100 RU by adjusting the capture time between 0-5 min), and then the chip was equilibrated with the buffer for 1 min. The low-concentration antigen 2.5 nM PD-L1-HIS was injected at a flow rate of 30 μl/min for 240/300 seconds, to allow the antigen to bind to the antibody, and then the buffer was injected at a flow rate of 30 μl/min for 720/600 seconds for dissociation. 50 mM HCl were injected three times each for 15 s at a flow rate of 100 μl/min for regeneration, to complete one cycle. The antigen concentration was changed (such as 5 nM PD-L1-HIS) to carry out the cycle for measurement at a next gradient concentration until all gradient concentrations (2.5 nM, 5 nM, 10 nM, 20 nM, 40 nM, 80 nM PD-L1-HIS) and the replicate (such as 10 nM PD-L1-HIS) were tested.
The experimental data was double subtracted (minus the background values of the control channel and zero concentration), and fitted to the “1:1 binding” model in the Biacore 8K evaluation software. Biacore 8K was used to determine the affinity of the antibody to the PD-L1-HIS recombinant protein.

human PD-L1 protein [7] = biological target: T3, human PD-L1 protein; assay: ELISA on human PD-L1 protein; antibody kept at 40 C for 0 (D0), 7 (D7) or 14 (D14) days
Procedure: The antibody samples were treated separately at 40° C., and then centrifuged to remove the pellet. Then the amount of remaining antibody was evaluated by ELISA. (test after treatment at 40° C. for 7 days (D7) and 14 days (D14) separately; for each test, the untreated sample (D0) stored at −80° C. is used as a control) (FIG. 3)

biotin-labeled PD-L1-Fc [8] = biological target: T5, biotin-labeled PD-L1-Fc (human, UniProt Q9NZQ7 19-238, limits assumed, biotin-labeled (sites not given)); assay: ELISA: biotin-PD-L1-Fc binding to coated human PD-1 with titrated antibody; enhancement of PD-L1/PD-1 binding
T5 construct: not shown: Fc part
Procedure: (§3) The ELISA plate (Nunc) was coated with 100 μl/well of 0.5 μg/ml recombinant human PD-1 protein in PBS at 4° C. overnight. The plate was washed with PBS-T (0.05% Tween), and blocked with 200 μl/well of PBST containing 1% BSA at 37° C. for 0.5 hr. Then the blocking buffer was discarded, and 50 μl of 10 μg/ml purified antibody to be tested was added to the first test well. 3-fold serial dilutions were made, and a total of 11 test concentration gradients were given. […] The plate was washed 3 times with PBST, and incubated with 100 μl/well of Streptavidin-HRP (SA-HRP, GenScript) at 37° C. for 10 min. Finally, the plate was washed 5 times with PBST, and then a TMB developing solution (GenScript) was added and incubated at room temperature for 15 min in the dark. The reaction was terminated by adding 50 μl of 1M HCl stop solution (Sigma). The plate was read at 450 nm on a microplate reader.

biotin-labeled PD-L1-Fc [9] = biological target: T5, biotin-labeled PD-L1-Fc; assay: ELISA: biotin-PD-L1-Fc binding to coated human PD-1 with titrated antibody, OD 450 nm, fitted curve; enhancement
Procedure: as §3

biotin-labeled PD-L1-Fc [10] = biological target: T5, biotin-labeled PD-L1-Fc; assay: flow cytometry: biotin-PD-L1-Fc binding to CHO cells expressing human PD-1 with titrated antibody, fitted curve; enhancement
Procedure: (§4) In the FACS test, CHO cells expressing human PD-1 and parent cells as a negative control were washed 3 times with PBS. 2.5×10⁵ detection cells and 50 μl of 3-fold serial dilutions of purified antibody with an initial concentration of 300 nM were added to a 96-well plate. […] Then the cells were washed 3 times with PBS, 100 μl of iFluor647-labeled streptavidin (1 μg/ml) was added, and the cells were incubated at 4° C. for 45 min. Finally, the cells were washed 3 times with PBS, and the signal was read on FACS BD Calibur.

biotin-labeled PD-L1-Fc [11] = biological target: T5, biotin-labeled PD-L1-Fc; assay: flow cytometry: biotin-PD-L1-Fc binding to CHO cells expressing human PD-1 with titrated antibody; enhancement of PD-L1/PD-1 binding
Procedure: as §4

human PD-L1 protein [12] = biological target: T3, human PD-L1 protein; assay: ELISA on the antigen (human PD-L1); antibody untreated (0), after oxidative stress (AAPH, 24 h) or deamidation stress (pH 9.0, 48 h); curves not told apart

T1 sequence (Q9NZQ7 19-290): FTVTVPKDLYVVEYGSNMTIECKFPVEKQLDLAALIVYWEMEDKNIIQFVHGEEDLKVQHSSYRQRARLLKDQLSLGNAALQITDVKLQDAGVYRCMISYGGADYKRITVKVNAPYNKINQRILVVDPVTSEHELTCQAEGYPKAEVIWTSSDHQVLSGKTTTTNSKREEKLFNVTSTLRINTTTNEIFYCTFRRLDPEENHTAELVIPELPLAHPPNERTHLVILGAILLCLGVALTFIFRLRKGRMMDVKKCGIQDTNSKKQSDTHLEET
T3 sequence (Q9NZQ7 19-238 limits assumed): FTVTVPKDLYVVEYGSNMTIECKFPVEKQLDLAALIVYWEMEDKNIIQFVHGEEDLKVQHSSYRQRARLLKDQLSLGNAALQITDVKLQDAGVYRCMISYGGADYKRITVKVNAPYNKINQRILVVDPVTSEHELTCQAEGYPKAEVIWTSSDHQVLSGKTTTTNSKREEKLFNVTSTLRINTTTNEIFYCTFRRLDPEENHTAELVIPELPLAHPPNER
T5 sequence (Q9NZQ7 19-238 limits assumed): as above
T4 sequence (Q9NZQ7 19-238 limits assumed): as above

- Bottom (best-fit value) of IL-2 release, mixed lymphocyte reaction [1]: 1350
- EC50 (µg/ml) of IL-2 release, mixed lymphocyte reaction [1]: 0.0293 µg/mL
- LogEC50 (best-fit value) of IL-2 release, mixed lymphocyte reaction [1]: -1.53
- Span (best-fit value) of IL-2 release, mixed lymphocyte reaction [1]: 1020
- Top (best-fit value) of IL-2 release, mixed lymphocyte reaction [1]: 2370
- EC50 [2]: 0.478 nM
- LogEC50 [2]: -0.321
- EC50 [3]: 3.4 nM
- LogEC50 [3]: 0.532
- EC50 (read off the curve) (human PD-L1 protein [4]): ~40 ng/mL
- EC50 (read off the curve) (human PD-L1 protein [5]): ~10 ng/mL
- Kd [6]: 1.57 nM
- koff [6]: 0.000334 s⁻¹
- kon [6]: 213000 M⁻¹ s⁻¹
- EC50 (read off the curve) (human PD-L1 protein [7]): ~10 ng/mL
- EC50 (biotin-labeled PD-L1-Fc [8]): 0.017 µg/mL
- LogEC50 (biotin-labeled PD-L1-Fc [9]): 1.23
- LogEC50 (biotin-labeled PD-L1-Fc [10]): 1.59
- EC50 (biotin-labeled PD-L1-Fc [11]): 38.7 nM
- EC50 (read off the curve) (human PD-L1 protein [12]): ~20 ng/mL
B1: AH02029 (antibody, human IgG1, V domains shown)
VH: QVQLQESGPGLVKPSQTLSLTCTVTGYSITSGYTWHWIRQHPGKGLEWIGYIHYSGSTKYNPSLKSRVSISRDTSKNQFSLKLSSVTAADTAVYYCARNSLFASWGQGTLVTVSS
VL: DIVLTQSPDSLAVSLGERATINCRASESVDTYGDSFMHWYQQKPGQPPKLLIYRASNLESGVPDRFSGSGSGTDFTLTISSLQAEDVAVYYCQQSNEAPYTFGGGTKLEIK
notes: also called mPD-L1Ab-5BM clone AH02029
